Results as given in patent publication EP4184166A1 (FNCT Biotech, Inc., dated 2023).

Biological target: T1, SRC (UniProt P12931 2-536, limits assumed)
T1 construct: whole, on cells; Endogenous intracellular protein in cell lysates or stained cells; also called p-SRC (phosphorylated form)
Assay: immunoprecipitation with ICAM-1 Tyr512 mutants

binding result	Binder
binds	ICAM-1 Y512A mutant (receptor, Mutant expressed in cells for immunoprecipitation) QTSVSPSKVILPRGGSVLVTCSTSCDQPKLLGIETPLPKKELLLPGNNRKVYELSNVQEDSQPMCYSNCPDGQSTAKTFLTVYWTPERVELAPLPSWQPVGKNLTLRCQVEGGAPRANLTVVLLRGEKELKREPAVGEPAEVTTTVLVRRDHHGANFSCRTELDLRPQGLELFENTSAPYQLQTFVLPATPPQLVSPRVLEVDTQGTVVCSLDGLFPVSEAQVHLALGDQRLNPTVTYGNDSFSAKASVSVTAEDEGTQRLTCAVILGNQSQETLQTVTIYSFPAPNVILTKPEVSEGTEVTVKCEAHPRAKVTLNGVPAQPLGPRAQLLLKATPEDNGRSFSCSATLEVAGQLIHKNQTRELRVLYGPRLDERDCPGNWTWPENSQQTPMCQAWGNPLPELKCLKDGTFPLPIGESVTVTRDLEGTYLCRARSTQGEVTRKVTVNVLSPRYEIVIITVVAAAVIMGTAGLSTYLYNRQRKIKKARLQQAQKGTPMKPNTQATPP
binds	ICAM-1 Y512D mutant (receptor, Mutant expressed in cells for immunoprecipitation) QTSVSPSKVILPRGGSVLVTCSTSCDQPKLLGIETPLPKKELLLPGNNRKVYELSNVQEDSQPMCYSNCPDGQSTAKTFLTVYWTPERVELAPLPSWQPVGKNLTLRCQVEGGAPRANLTVVLLRGEKELKREPAVGEPAEVTTTVLVRRDHHGANFSCRTELDLRPQGLELFENTSAPYQLQTFVLPATPPQLVSPRVLEVDTQGTVVCSLDGLFPVSEAQVHLALGDQRLNPTVTYGNDSFSAKASVSVTAEDEGTQRLTCAVILGNQSQETLQTVTIYSFPAPNVILTKPEVSEGTEVTVKCEAHPRAKVTLNGVPAQPLGPRAQLLLKATPEDNGRSFSCSATLEVAGQLIHKNQTRELRVLYGPRLDERDCPGNWTWPENSQQTPMCQAWGNPLPELKCLKDGTFPLPIGESVTVTRDLEGTYLCRARSTQGEVTRKVTVNVLSPRYEIVIITVVAAAVIMGTAGLSTYLYNRQRKIKKDRLQQAQKGTPMKPNTQATPP
